Assay results from US20260284241A1, “DOSAGE REGIMEN FOR SHORT-LIVED RADIOISOTOPE” (AdvanCell Pty Limited, priority 2023, published 2026).

System: metastatic castration-resistant prostate cancer
Experiment: 212Pb SPECT/CT imaging (biodistribution) in a patient with metastatic castration-resistant prostate cancer
Format: in vivo, human
Conditions: 60 MBq
Procedure: To gauge the biodistribution and inform patient tolerability of a ^212Pb radiopharmaceutical comprising an acetamide-based chelator, 60 MBq of ^212Pb-ADVC001 was administered to a person with metastatic castration-resistant prostate cancer. SPECT/CT imaging was performed at 1.5, 5, 20, and 28 h following infusion. […] FIG. 3B depicts sagittal and coronal images at 1.5 h after injection (p.i.). Further details are published in Griffths et al., Journal of Nuclear Medicine, 2024, 65 (7), the entire contents of which are hereby incorporated herein by reference.

In the case of “HO-Glu-CO-Lys[SubA-D-Lys-D-Phe-D-Tyr(3I)-(Pent-^212Pb-DO3AM)]-OH [^212Pb-ADVC001]”, the kidney clearance (patient with mCRPC, SPECT/CT (FIG. 3A)) is reported as “rapid kidney clearance” and the “tumour uptake on 212Pb SPECT/CT images” value (person with mCRPC, SPECT/CT at 1.5, 5, 20 and 28 h following infusion) is reported as “rapid tumour uptake”.
